Consider four substances from paper doi:10.1101/596536.

The target in assay [1] is TcdB2-TccC3 from Photorhabdus luminescens (Pl-TcdB2-TccC3) (P. luminescens) (UniProt Q8GF99). Description: BLI. In general terms: Biolayer interferometry detects binding as a change in optical thickness at a sensor tip.
For assay [2], the target named is TcdA1 from Photorhabdus luminescens (Pl-TcdA1) (P. luminescens) (UniProt Q9RN43). Description: cryo-EM structure.
Assay [3] concerns the target TcdA4 from Morganella morganii (Mm-TcdA4) (M. morganii). Description: cryo-EM structure.
In assay [4] the target is TcdA4 from Photorhabdus luminescens (Pl-TcdA4) (P. luminescens) (UniProt Q8GF92). Description: cryo-EM structure.
Assay [5] has as its target XptA1 from Xenorhabdus nematophila (Xn-XptA1) (X. nematophila). Description: cryo-EM structure.

On to “TcdA1 from Photorhabdus luminescens (Pl-TcdA1), Q9RN43 1-2516”, for which the dissociation constant (Kd) (as a rule, the concentration at which binding is half-saturated) in assay [1] worked out at 0.63 nM. The stoichiometry N (in general, the number of molecules, sites or subunits per partner or assembly) in assay [2] came to 5. Take “TcdA4 from Morganella morganii (Mm-TcdA4) (natural protein)”: in assay [1], the Kd turned out to be 11.3 nM. The substance also had a stoichiometry N in assay [3] of 5.

Regarding “TcdA4 from Photorhabdus luminescens (Pl-TcdA4), Q8GF92 1-2381”, the stoichiometry N in assay [4] stood at 5. For “XptA1 from Xenorhabdus nematophila (Xn-XptA1) (natural protein)”, the Kd in assay [1] turned out to be 1.99 nM. The same substance gave a stoichiometry N in assay [5] of 5.
